Assay [1] concerns the target Crovalimab (human). Put plainly: SPR; Biacore T200, 37 °C, pH 5.8; antibodies captured by goat anti-human IgG (Fc) on a CM4 chip (50-80 RU); recombinant human C5 as analyte, three-fold dilutions from 135 nM; 20 mM ACES, 150 mM NaCl, 1.2 mM CaCl2, 0.05% Tween 20, 0.005% NaN3; 1:1 binding model. For orientation: Surface plasmon resonance follows binding to a sensor surface in real time, without labels.

Assay [2] deals with Crovalimab (human). The assay can be described thus: SPR; Biacore T200, 37 °C, pH 7.4; antibodies captured by goat anti-human IgG (Fc) on a CM4 chip (50-80 RU); recombinant human C5 as analyte, three-fold dilutions from 27 nM; 20 mM ACES, 150 mM NaCl, 1.2 mM CaCl2, 0.05% Tween 20, 0.005% NaN3; 1:1 binding model.

pKd: −log10 of the molar value.

Sequence of Crovalimab (human) (light, as listed by the source, chain 2 of 2, other chains not shown): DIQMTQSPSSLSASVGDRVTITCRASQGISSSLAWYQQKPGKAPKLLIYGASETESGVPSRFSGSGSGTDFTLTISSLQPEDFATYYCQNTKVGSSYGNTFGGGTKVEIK

One may read the pKd as −log10 of the Kd, conventionally taken in molar units. One may read the koff as a measure of how fast the partners let go of each other. As a reminder, the kon is the rate constant with which the complex forms. On to Recombinant human C5 (natural protein), for which, in assay [1], the pKd is 6.88, the koff came out at 0.0164 s⁻¹ and the on-rate constant (kon) is 125000 M⁻¹ s⁻¹. In addition, in assay [2], the negative logarithm of the Kd (pKd) was 9.78, the koff turned out to be 0.000123 s⁻¹ and the kon came to 741000 M⁻¹ s⁻¹.
